Test results reported in article PMC6613838 (Autophagy, 2019).

B1: GST-UVRAG FL (natural protein)
chain: MSASASVGGPVPQPPPGPAAALPPGSAARALHVELPSQQRRLRHLRNIAARNIVNRNGHQLLDTYFTLHLCSTEKIYKEFYRSEVIKNSLNPTWRSLDFGIMPDRLDTSVSCFVVKIWGGKENIYQLLIEWKVCLDGLKYLGQQIHARNQNEIIFGLNDGYYGAPFEHKGYSNAQKTILLQVDQNCVRNSYDVFSLLRLHRAQCAIKQTQVTVQKIGKEIEEKLRLTSTSNELKKKSECLQLKILVLQNELERQKKALGREVALLHKQQIALQDKGSAFSAEHLKLQLQKESLNELRKECTAKRELFLKTNAQLTIRCRQLLSELSYIYPIDLNEHKDYFVCGVKLPNSEDFQAKDDGSIAVALGYTAHLVSMISFFLQVPLRYPIIHKGSRSTIKDNINDKLTEKEREFPLYPKGGEKLQFDYGVYLLNKNIAQLRYQHGLGTPDLRQTLPNLKNFMEHGLMVRCDRHHTSSAIPVPKRQSSIFGGADVGFSGGIPSPDKGHRKRASSENERLQYKTPPPSYNSALAQPVTTVPSMGETERKITSLSSSLDTSLDFSKENKKKGEDLVGSLNGGHANVHPSQEQGEALSGHRATVNGTLLPSEQAGSASVQLPGEFHPVSEAELCCTVEQAEEIIGLEATGFASGDQLEAFNCIPVDSAVAVECDEQVLGEFEEFSRRIYALNENVSSFRRPRRSSDK

What was measured:
[1] = target: His-SMURF1 (E. coli) (human, UniProt Q9HCE7-2 1-731); test: pull-down
[2] = target: B1; test: pull-down

Row | Binder | binding result [1] | binding result [2]
1 | GST-UVRAG C-terminal fragment (501–699 aa) (domain or fragment) KGHRKRASSENERLQYKTPPPSYNSALAQPVTTVPSMGETERKITSLSSSLDTSLDFSKENKKKGEDLVGSLNGGHANVHPSQEQGEALSGHRATVNGTLLPSEQAGSASVQLPGEFHPVSEAELCCTVEQAEEIIGLEATGFASGDQLEAFNCIPVDSAVAVECDEQVLGEFEEFSRRIYALNENVSSFRRPRRSSDK | binds | –
2 | His-CSNK1A1 (enzyme) MASSSGSKAEFIVGGKYKLVRKIGSGSFGDIYLAINITNGEEVAVKLESQKARHPQLLYESKLYKILQGGVGIPHIRWYGQEKDYNVLVMDLLGPSLEDLFNFCSRRFTMKTVLMLADQMISRIEYVHTKNFIHRDIKPDNFLMGIGRHCNKLFLIDFGLAKKYRDNRTRQHIPYREDKNLTGTARYASINAHLGIEQSRRDDMESLGYVLMYFNRTSLPWQGLKAATKKQKYEKISEKKMSTPVEVLCKGFPAEFAMYLNYCRGLRFEEAPDYMYLRQLFRILFRTLNHQYDYTFDWTMLKQKAAQQAASSSGQGQQAQTPTGKQTDKTKSNMKGF | – | binds
3 | B1 | binds | –
